Consider 4 molecules from patent EP4239334A1 (Consorcio Centro de Investigación Biomédica en Red (CIBER), dated 2023).

Assay [1] concerns the target T1, NF-κB p65 subunit (endogenous, HEK-293T cells) (UniProt Q04206 1-551).
T1 construct: Endogenous protein co-precipitated with HA-IκBα from transfected HEK-293T cells; also called p65/NF-κB; p65/RelA
The assay can be described thus: PD and Co-IP.

Assay [2] has as its target T2, NF-κB p50 subunit (endogenous, HEK-293T cells) (UniProt P19838 1-433, limits assumed).
T2 construct: Endogenous protein co-precipitated with HA-IκBα from transfected HEK-293T cells; also called p50 NF-κB
T2 sequence (looked up): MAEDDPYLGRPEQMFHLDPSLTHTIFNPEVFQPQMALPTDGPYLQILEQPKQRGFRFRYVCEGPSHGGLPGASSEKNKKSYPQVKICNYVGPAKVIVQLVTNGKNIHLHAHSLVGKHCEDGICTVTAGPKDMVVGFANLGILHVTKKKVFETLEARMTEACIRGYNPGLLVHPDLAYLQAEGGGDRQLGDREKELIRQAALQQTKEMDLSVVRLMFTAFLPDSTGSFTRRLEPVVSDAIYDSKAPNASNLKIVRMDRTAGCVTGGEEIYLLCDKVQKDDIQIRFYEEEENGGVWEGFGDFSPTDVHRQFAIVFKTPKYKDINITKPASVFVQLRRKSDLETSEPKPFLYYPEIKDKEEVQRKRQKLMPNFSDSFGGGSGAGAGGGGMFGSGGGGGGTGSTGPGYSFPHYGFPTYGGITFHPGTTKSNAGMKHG
The assay can be described thus: PD and Co-IP.

The target of assay [3] is T1, NF-κB p65 subunit (endogenous, HEK-293T …). The assay can be described thus: Co-IP of single point mutants, WB.
In assay [4] the target is T2, NF-κB p50 subunit (endogenous, HEK-293T …). The assay can be described thus: Co-IP of single point mutants, WB.
In assay [5] the target is T1, NF-κB p65 subunit (endogenous, HEK-293T …). The assay can be described thus: Co-IP from transfected HEK-293T cells, WB.
Assay [6] has as its target T2, NF-κB p50 subunit (endogenous, HEK-293T …). The assay can be described thus: Co-IP from transfected HEK-293T cells, WB.

Residue numbers refer to the chain shown, from its start. In names and notes the source's numbering stands.

T1 sequence (Q04206 whole entry): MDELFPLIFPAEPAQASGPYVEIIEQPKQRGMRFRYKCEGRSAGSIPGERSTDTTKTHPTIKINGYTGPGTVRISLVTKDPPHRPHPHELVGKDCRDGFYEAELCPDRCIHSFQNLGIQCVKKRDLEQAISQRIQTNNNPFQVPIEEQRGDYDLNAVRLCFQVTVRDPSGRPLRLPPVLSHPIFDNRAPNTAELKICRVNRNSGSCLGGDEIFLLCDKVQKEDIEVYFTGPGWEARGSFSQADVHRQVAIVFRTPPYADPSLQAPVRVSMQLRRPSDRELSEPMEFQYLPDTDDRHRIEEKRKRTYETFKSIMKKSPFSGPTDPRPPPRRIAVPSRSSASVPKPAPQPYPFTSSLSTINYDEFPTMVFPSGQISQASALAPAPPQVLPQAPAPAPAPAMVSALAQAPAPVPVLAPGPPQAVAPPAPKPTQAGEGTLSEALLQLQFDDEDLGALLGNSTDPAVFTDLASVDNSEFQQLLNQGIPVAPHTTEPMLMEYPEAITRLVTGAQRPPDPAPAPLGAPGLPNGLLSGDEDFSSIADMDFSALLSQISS

B1: IκBα HEE84-86AAA / SOF^NF-κB (SEQ ID NO: 1) (other)
chain: MFQAAERPQEWAMEGPRDGLKKERLLDDRHDSGLDSMKDEEYEQMVKELQEIRLEPQEVPRGSEPWKQQLTEDGDSFLHLAIIAAAKALTMEVIRQVKGDLAFLNFQNNLQQTPLHLAVITNQPEIAEALLGAGCDPELRDFRGNTPLHLACEQGCLASVGVLTQSCTTPHLHSILKATNYNGHTCLHLASIHGYLGIVELLVSLGADVNAQEPCNGRTALHLAVDLQNPDLVSLLLKCGADVNRVTYQGYSPYQLTWGRPSTRIQQQLGQLTLENLQMLPESEDEESYDTESEFTEFTEDELPYDDCVFGGQRLTL
notes: Compose mutant of IκBα, expressed in HEK-293T cells; also called IκBα SOF^NF-κB; H84, E85, E86 to A; not shown: HA tag
As for B1, the binding result in assay [1] and in assay [2] was “binds” in each case.

B2: IκBα D75A / SOF^PRC2 (SEQ ID NO: 2) (other)
chain: B1 chain with D75A, A84H, A85E, A86E
notes: Single point mutant of IκBα; also called IκBα SOF^PRC2; IkBa D75A; not shown: HA tag
As for B2, the binding result in assay [3] and in assay [4] was “no binding” in each case.

B3: IκBα N108A / SOF^PRC2 (SEQ ID NO: 3) (other)
chain: B1 chain with A84H, A85E, A86E, N108A
notes: Single point mutant of IκBα; also called IκBα SOF^PRC2 mutant N108A; IkBa N108A; not shown: HA tag
For B3, the binding result in assay [3] and in assay [4] was “no binding” each time.

B4: IκBα compose mutant H84, E85, E86, N108, Q112 to A (other)
chain: B1 chain with N108A, Q112A
notes: not shown: HA tag
Regarding B4, the binding result in assay [5] and in assay [6] was “no binding” throughout.
